Laboratory results from the RNAGym collection of RNA variant scans (doi:10.1093/nar/gkz1192).

B1: CPEB3 Ribozyme (parent)
chain: UAACAGGGGGCCACAGCAGAAGCGUUCACGUCGCAGCCCCUGUCAGAUUCUGGUGAAUCUGCGAAUUCUGCUGUAUAUCUC

Variants of: B1
Assay: self-cleavage, relative activity (ratio to wild type); higher = more cleavage; in vitro, sequencing
Method in brief: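 Barcoded CPEB3 ribozyme mutants, produced by rounds of error-prone PCR, self-cleaved while being transcribed with T7 RNA polymerase for 5 hours at 37°C and during a subsequent 15 min DNase I step before EDTA was added. Sequencing of template-switched cDNA on Illumina gave cleaved and total reads, and DNA sequencing assigned barcodes to variants. Each variant's relative activity is its cleaved/total read fraction divided by the unmutated ribozyme's fraction, averaged across three batches. A variant needed a minimum of 5 reads.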

Going from C34U A45G to C34U A45C, the self-cleavage falls from 0.34 to 0.17.

Compared with A35C A56G, A35C A56U is lower in self-cleavage: 0.77 for the first, 0.53 for the second.

First: C34A A47G
Second: A35G C37A
The self-cleavage of the first is lower: 0.31 for the first, 0.86 for the second.

Compared with A35G C37G, C34U U67A is lower in self-cleavage: 0.89 for the first, 0.42 for the second.

C34U U67G and C34U U67C are the same in self-cleavage: 0.12 for the first, 0.12 for the second.

First: G33C U67C
Second: G33C U67A
The self-cleavage of the first is lower: 0.12 for the first, 0.17 for the second.

Going from C34A U67A to C34A U67C, the self-cleavage falls from 0.33 to 0.29.

Compared with A35C U54C, A35C U60C is lower in self-cleavage: 0.8 for the first, 0.48 for the second.

First: C34A U48C
Second: C34U A56G
The self-cleavage of the first is lower: 0.13 for the first, 0.48 for the second.

Compared with C34U A56U, G33U A35U is lower in self-cleavage: 0.34 for the first, 0.15 for the second.

First: C34G U60C
Second: C34U A65G
The self-cleavage of the first is lower: 0.15 for the first, 0.34 for the second.

First: G33U U69C
Second: A35C A47U
The self-cleavage of the first is lower: 0.2 for the first, 0.63 for the second.

First: A35C A47G
Second: G33C U41A
The self-cleavage of the first is higher: 0.81 for the first, 0.16 for the second.

Compared with C34G G63C, A35C C40A is higher in self-cleavage: 0.24 for the first, 0.6 for the second.

Compared with C34G U51C, G33C C38U is lower in self-cleavage: 0.29 for the first, 0.12 for the second.

Compared with C34A A57G, C34U A64U is lower in self-cleavage: 0.35 for the first, 0.13 for the second.

Going from C34U A64G to A35G C38U, the self-cleavage rises from 0.45 to 1.23.

Going from A35G C38G to A35G C38A, the self-cleavage rises from 0.96 to 1.21.

First: A35C C38A
Second: C34A A65G
The self-cleavage of the first is lower: 0.2 for the first, 0.26 for the second.

Going from C34A U41G to G33C U43A, the self-cleavage falls from 0.39 to 0.18.

First: G33C U43C
Second: G33C A35U
The self-cleavage of the first is higher: 0.22 for the first, 0.14 for the second.

Compared with G33C A35G, C34G A77C is lower in self-cleavage: 0.22 for the first, 0.08 for the second.

Going from A35C U51A to A35C U51C, the self-cleavage falls from 1 to 0.79.

Going from C34G U69A to C34G U69C, the self-cleavage falls from 0.3 to 0.21.

G33U U51G and G33U U51C are the same in self-cleavage: 0.09 for the first, 0.09 for the second.

Compared with G33C U51C, G33C U51A is lower in self-cleavage: 0.44 for the first, 0.15 for the second.

Compared with A35G, A35C is lower in self-cleavage: 1.27 for the first, 0.85 for the second.

Compared with A35C A57G, A35C A57C is lower in self-cleavage: 0.93 for the first, 0.28 for the second.

Compared with C34U G70A, C34U C68U is higher in self-cleavage: 0.14 for the first, 0.3 for the second.

Going from G33U A57G to C34A G70C, the self-cleavage falls from 0.28 to 0.17.

Compared with A35G G70U, A35G G70A is higher in self-cleavage: 0.78 for the first, 1.13 for the second.

Going from G33C C79U to C34G C59G, the self-cleavage falls from 0.19 to 0.14.

Compared with C34G C59A, C34G A45C is higher in self-cleavage: 0.18 for the first, 0.19 for the second.

Going from A35G C81A to A35G C81U, the self-cleavage falls from 1.3 to 1.29.

First: C34G C62G
Second: C34U G63U
The self-cleavage of the first is lower: 0.04 for the first, 0.38 for the second.

Going from C34U G63A to C34U G61U, the self-cleavage falls from 0.27 to 0.19.

Compared with G33A U80C, G33A U80G is lower in self-cleavage: 0.31 for the first, 0.14 for the second.

Compared with G33A U80A, G33C A75G is lower in self-cleavage: 0.29 for the first, 0.18 for the second.

Compared with G33U G46A, C34U G52U is lower in self-cleavage: 0.44 for the first, 0.33 for the second.

First: G33C C40A
Second: C34A
The self-cleavage of the first is lower: 0.15 for the first, 0.34 for the second.

Compared with C34G, C34U is higher in self-cleavage: 0.33 for the first, 0.35 for the second.

Compared with C34A U60C, G33C A45G is higher in self-cleavage: 0.14 for the first, 0.23 for the second.

First: G33C A45U
Second: C34U A35G
The self-cleavage of the first is lower: 0.17 for the first, 0.36 for the second.

First: C34U A35U
Second: C34U U43A
The self-cleavage of the first is lower: 0.27 for the first, 0.51 for the second.

Going from C34U U43C to C34G U41C, the self-cleavage falls from 0.22 to 0.14.

Compared with C34A A35G, G33C A47G is lower in self-cleavage: 1.07 for the first, 0.08 for the second.

First: G33U U80A
Second: G33U U80C
The self-cleavage of the first is lower: 0.25 for the first, 0.44 for the second.

Compared with C34G U80C, C34U G46A is lower in self-cleavage: 0.24 for the first, 0.07 for the second.

First: A35G C62A
Second: A35G C62G
The self-cleavage of the first is higher: 0.52 for the first, 0.51 for the second.

Going from A35G C62U to G33C U80C, the self-cleavage falls from 0.34 to 0.27.

Compared with G33C A57G, G33U U66A is higher in self-cleavage: 0.13 for the first, 0.16 for the second.

Compared with G33U U66C, G33C U69A is lower in self-cleavage: 0.13 for the first, 0.07 for the second.

Going from G33C U69C to A35G U49A, the self-cleavage rises from 0.13 to 1.23.

First: G33U U43C
Second: A35C C50A
The self-cleavage of the first is lower: 0.48 for the first, 0.92 for the second.

G33C U54C and C34G U67C are the same in self-cleavage: 0.13 for the first, 0.13 for the second.

First: G33U G36U
Second: C34A U80C
The self-cleavage of the first is lower: 0.13 for the first, 0.34 for the second.

First: C34A U80G
Second: C34G C71U
The self-cleavage of the first is lower: 0.33 for the first, 0.52 for the second.

Compared with C34G C44A, C34G U76G is higher in self-cleavage: 0.1 for the first, 0.32 for the second.

First: A35C U72C
Second: A35C U72G
The self-cleavage of the first is higher: 1.14 for the first, 0.43 for the second.

Going from C34A A64G to G33C A65G, the self-cleavage rises from 0.14 to 0.18.

First: G33C A65C
Second: A35G G63A
The self-cleavage of the first is lower: 0.1 for the first, 1.29 for the second.

Going from A35G G63C to A35G G63U, the self-cleavage falls from 1.27 to 1.2.

First: A35G A65U
Second: A35G A65G
The self-cleavage of the first is lower: 0.96 for the first, 1.19 for the second.

Going from A35G A65C to G33U C38A, the self-cleavage falls from 0.67 to 0.2.

Compared with G33U C38U, C34G U48C is lower in self-cleavage: 0.36 for the first, 0.21 for the second.

First: G33C U49C
Second: G33U A75U
The self-cleavage of the first is lower: 0.12 for the first, 0.81 for the second.

First: A35C A65G
Second: G33U A65G
The self-cleavage of the first is lower: 0.34 for the first, 0.43 for the second.

First: G33U A65U
Second: A35G A75G
The self-cleavage of the first is lower: 0.13 for the first, 1.31 for the second.

Compared with A35G A75C, A35G A75U is higher in self-cleavage: 1.25 for the first, 1.27 for the second.

Compared with A35C U80A, A35C U80C is lower in self-cleavage: 0.89 for the first, 0.84 for the second.

First: G33C G52A
Second: A35G C79A
The self-cleavage of the first is lower: 0.19 for the first, 1.3 for the second.

Going from A35G C79U to C34U U76A, the self-cleavage falls from 1.51 to 0.5.

Compared with C34U U76C, C34U U60A is lower in self-cleavage: 0.35 for the first, 0.14 for the second.

Going from C34U U60C to C34A U74G, the self-cleavage rises from 0.11 to 0.29.

Compared with C34G U72C, C34G U72A is lower in self-cleavage: 0.22 for the first, 0.08 for the second.

First: C34G U72G
Second: A35G A64C
The self-cleavage of the first is lower: 0.15 for the first, 0.98 for the second.

Going from A35G A64G to A35G A64U, the self-cleavage falls from 1.28 to 1.12.

Compared with A35G G61A, A35G G61U is higher in self-cleavage: 1.11 for the first, 1.23 for the second.

Compared with C34U U41A, C34U U41C is higher in self-cleavage: 0.4 for the first, 0.5 for the second.

Going from C34U U41G to A35C U78A, the self-cleavage rises from 0.12 to 0.74.

Going from A35C U78C to G33C U60C, the self-cleavage falls from 0.73 to 0.11.

First: G33C U60A
Second: G33C U60G
The self-cleavage of the first is higher: 0.25 for the first, 0.12 for the second.

Compared with A35C U69A, A35C U69C is lower in self-cleavage: 0.53 for the first, 0.46 for the second.

Work on A35C U69G yielded a self-cleavage of 0.62.
